In patent US20240270821A1, “GIP/GLP1/GCG TRI-RECEPTOR AGONISTS AND USES THEREOF” (priority 2023, published 2024):
Positions count from the first letter of the chain named.

T1: human GIP receptor (human) (UniProt P48546)
T1 sequence (looked up): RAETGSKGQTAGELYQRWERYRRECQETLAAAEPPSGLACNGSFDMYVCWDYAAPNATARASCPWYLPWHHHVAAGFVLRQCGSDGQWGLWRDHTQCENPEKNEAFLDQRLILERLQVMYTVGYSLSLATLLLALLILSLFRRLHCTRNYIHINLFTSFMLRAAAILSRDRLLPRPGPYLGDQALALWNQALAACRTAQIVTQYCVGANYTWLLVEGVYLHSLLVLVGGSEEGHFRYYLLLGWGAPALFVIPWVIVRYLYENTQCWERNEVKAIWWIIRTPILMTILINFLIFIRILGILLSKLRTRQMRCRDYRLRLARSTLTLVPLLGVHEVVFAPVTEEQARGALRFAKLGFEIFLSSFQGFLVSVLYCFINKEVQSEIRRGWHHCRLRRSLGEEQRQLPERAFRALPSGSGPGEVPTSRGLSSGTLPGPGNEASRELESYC

B1: Example 497 (peptide)
chain: YXQGTFTSDXSXXLDKKAQXAFIEXLIEGGPSSGAPPPSGS
modifications: synthetic construct; SITE 2: note = 2-Aminoisobutyric Acid; SITE 10: note = 3-(4-Pyridyl)-L-alanine; SITE 12: note = L-ornithine; SITE 13: note = alpha-methyl-leucine; SITE 17: note = Lysine is chemically modified through conjugation of the epsilon-amino group of the Lysine side chain with (2-[2-(2-
B2: Example 494 (peptide)
chain: YXQGTXTSDXSIXLDXKAQXXFIEYLLEGGPSSGEPPPEEG
modifications: synthetic construct; SITE 2: note = 2-Aminoisobutyric Acid; SITE 6: note = alpha-methyl-2-fluoro-L-phenylalanine; SITE 10: note = 3-(4-Pyridyl)-L-alanine; SITE 13: note = alpha-methyl-leucine; SITE 16: note = L-ornithine; SITE 17: note = Lysine is chemically modified through conjugation of the epsil
B3: Example 505 (peptide)
chain: B2 chain with Y25X, L27I, E40G, G41T
modifications: synthetic construct; SITE 2: note = 2-Aminoisobutyric Acid; SITE 6: note = alpha-methyl-2-fluoro-L-phenylalanine; SITE 10: note = 3-(4-Pyridyl)-L-alanine; SITE 13: note = alpha-methyl-leucine; SITE 16: note = L-ornithine; SITE 17: note = Lysine is chemically modified through conjugation of the epsil
B4: Example 523 (peptide)
chain: YXQGTXTSDXXIXLDXKAQXXFIEYLIEGGPSSGEPPPSGTGE
modifications: synthetic construct; SITE 2: note = 2-Aminoisobutyric Acid; SITE 6: note = alpha-methyl-2-fluoro-L-phenylalanine; SITE 10: note = 3-(4-Pyridyl)-L-alanine; SITE 11: note = alpha-methyl-L-serine; SITE 13: note = alpha-methyl-leucine; SITE 16: note = L-ornithine; SITE 17: note = Lysine is chemically mo
B5: Example 471 (peptide)
chain: YXQGTXTSDYSILLDKKAQXAFIEYLEEGGPSSGAPPPEEG
modifications: synthetic construct; SITE 2: note = 2-Aminoisobutyric Acid; SITE 6: note = alpha-methyl-2-fluoro-L-phenylalanine; SITE 17: note = Lysine is chemically modified through conjugation of the epsilon-amino group of the Lysine side chain with (gamma-Glu)2-CO-(CH2)16-CO2H; SITE 20: note = 2-Aminoisobutyric
B6: Example 478 (peptide)
chain: HXQGTXTSDXXIXLDXKAQXNFIEYLLEGGPSSGEPPPE
modifications: synthetic construct; SITE 2: note = 2-Aminoisobutyric Acid; SITE 6: note = alpha-methyl-2-fluoro-L-phenylalanine; SITE 10: note = 3-(4-Pyridyl)-L-alanine; SITE 11: note = alpha-methyl-L-serine; SITE 13: note = alpha-methyl-leucine; SITE 16: note = L-ornithine; SITE 17: note = Lysine is chemically mo
B7: Example 479 (peptide)
chain: B6 chain with N21A, P37E
modifications: synthetic construct; SITE 2: note = 2-Aminoisobutyric Acid; SITE 6: note = alpha-methyl-2-fluoro-L-phenylalanine; SITE 10: note = 3-(4-Pyridyl)-L-alanine; SITE 11: note = alpha-methyl-L-serine; SITE 13: note = alpha-methyl-leucine; SITE 16: note = L-ornithine; SITE 17: note = Lysine is chemically mo
B8: Example 469 (peptide)
chain: YXQGTXTSDYXILLDKKAQXAFIEYLEEGGPSSGEPPPE
modifications: synthetic construct; SITE 2: note = 2-Aminoisobutyric Acid; SITE 6: note = alpha-methyl-2-fluoro-L-phenylalanine; SITE 11: note = alpha-methyl-L-serine; SITE 17: note = Lysine is chemically modified through conjugation of the epsilon-amino group of the Lysine side chain with (2-[2-(2-Amino-ethoxy)-e)
B9: Example 495 (peptide)
chain: B8 chain with Y10X, X11S, L13X, E35A
modifications: synthetic construct; SITE 2: note = 2-Aminoisobutyric Acid; SITE 6: note = alpha-methyl-2-fluoro-L-phenylalanine; SITE 10: note = 4-nitro-L-phenylalanine; SITE 13: note = alpha-methyl-leucine; SITE 17: note = Lysine is chemically modified through conjugation of the epsilon-amino group of the Lysine
B10: Example 487 (peptide)
chain: B8 chain with Y10X, X11S, L13X
modifications: synthetic construct; SITE 2: note = 2-Aminoisobutyric Acid; SITE 6: note = alpha-methyl-2-fluoro-L-phenylalanine; SITE 10: note = 3-(4-Pyridyl)-L-alanine; SITE 13: note = alpha-methyl-leucine; SITE 17: note = Lysine is chemically modified through conjugation of the epsilon-amino group of the Lysine
B11: Example 473 (peptide)
chain: YXQGTXTSDXXIXLDXKAQXNFIEXLIEGGPSSGEPEPSEG
modifications: synthetic construct; SITE 2: note = 2-Aminoisobutyric Acid; SITE 6: note = alpha-methyl-2-fluoro-L-phenylalanine; SITE 10: note = 3-(4-Pyridyl)-L-alanine; SITE 11: note = alpha-methyl-L-serine; SITE 13: note = alpha-methyl-leucine; SITE 16: note = L-ornithine; SITE 17: note = Lysine is chemically mo
B12: Example 492 (peptide)
chain: B11 chain with N21X, X25Y, E35A
modifications: synthetic construct; SITE 2: note = 2-Aminoisobutyric Acid; SITE 6: note = alpha-methyl-2-fluoro-L-phenylalanine; SITE 10: note = 3-(4-Pyridyl)-L-alanine; SITE 11: note = alpha-methyl-L-serine; SITE 13: note = alpha-methyl-leucine; SITE 16: note = L-ornithine; SITE 17: note = Lysine is chemically mo

Target: T1, human GIP receptor (human)
Assay: cell-based or functional assay

Binder | Relative cAMP EC50 [nM] | cAMP Rel EC50 (1% HSA) [nM] | Relative cAMP EC50, nM (0.1% casein) [nM] | cAMP Rel EC50 (receptor-expressing HEK-293 cells, 1% HSA) [nM]
B1 | 0.297 | 32.6 | – | –
B2 | – | – | 0.014 | 1.08
B3 | 0.00707 | 2.1 | – | –
B4 | 0.021 | 0.869 | – | –
B5 | – | – | 0.0296 | 5.45
B6 | – | – | 0.106 | 26
B7 | – | – | 0.0905 | 7.11
B8 | – | – | 0.031 | 4.24
B9 | – | – | 0.0361 | 5.74
B10 | – | – | 0.0286 | 2.26
B11 | – | – | 0.0101 | 1.11
B12 | – | – | 0.0119 | 0.84

Target: hGLP-1R (Homo sapiens, UniProt P43220)
Assay: cell-based or functional assay

hGLP-1R, sequence (P43220 24-463): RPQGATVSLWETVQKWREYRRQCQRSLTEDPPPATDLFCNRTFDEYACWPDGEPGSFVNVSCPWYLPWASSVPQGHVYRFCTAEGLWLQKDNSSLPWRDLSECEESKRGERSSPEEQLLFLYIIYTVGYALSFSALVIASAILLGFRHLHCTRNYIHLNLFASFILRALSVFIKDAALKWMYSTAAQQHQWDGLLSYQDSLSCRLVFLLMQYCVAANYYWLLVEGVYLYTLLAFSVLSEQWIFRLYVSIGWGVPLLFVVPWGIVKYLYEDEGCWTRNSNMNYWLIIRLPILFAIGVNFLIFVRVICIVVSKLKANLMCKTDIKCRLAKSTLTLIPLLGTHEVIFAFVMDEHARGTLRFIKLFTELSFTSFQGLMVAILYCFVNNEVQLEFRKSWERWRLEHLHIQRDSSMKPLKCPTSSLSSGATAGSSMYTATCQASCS

Binder | Relative cAMP EC50 [nM] | cAMP Rel EC50 (1% HSA) [nM] | Relative cAMP EC50, nM (0.1% casein) [nM] | cAMP Rel EC50 (receptor-expressing HEK-293 cells, 1% HSA) [nM]
B1 | 1.08 | 161 | – | –
B2 | – | – | 0.211 | 19.9
B3 | 0.205 | 39 | – | –
B4 | 0.482 | 27.1 | – | –
B5 | – | – | 0.317 | 37.9
B6 | – | – | 0.243 | 28.6
B7 | – | – | 0.314 | 23.5
B8 | – | – | 0.562 | 61.7
B9 | – | – | 0.274 | 53.8
B10 | – | – | 0.639 | 27.7
B11 | – | – | 0.173 | 11.4
B12 | – | – | 0.146 | 9.85

Target: human glucagon receptor (human) (UniProt P47871)
Assay: cell-based or functional assay

human glucagon receptor (human), sequence (P47871 26-477): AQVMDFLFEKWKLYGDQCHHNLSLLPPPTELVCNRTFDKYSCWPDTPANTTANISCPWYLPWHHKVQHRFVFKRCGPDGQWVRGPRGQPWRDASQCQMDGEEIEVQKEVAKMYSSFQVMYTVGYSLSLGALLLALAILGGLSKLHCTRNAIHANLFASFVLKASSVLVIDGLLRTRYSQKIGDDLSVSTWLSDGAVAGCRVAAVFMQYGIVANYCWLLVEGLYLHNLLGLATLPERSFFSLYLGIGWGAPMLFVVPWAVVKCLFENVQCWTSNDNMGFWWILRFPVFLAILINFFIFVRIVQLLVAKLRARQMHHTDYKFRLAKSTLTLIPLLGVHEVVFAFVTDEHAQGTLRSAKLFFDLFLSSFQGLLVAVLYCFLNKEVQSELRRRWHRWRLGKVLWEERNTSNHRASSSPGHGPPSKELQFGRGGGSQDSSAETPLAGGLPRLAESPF

Binder | Relative cAMP EC50 [nM] | cAMP Rel EC50 (1% HSA) [nM] | Relative cAMP EC50, nM (0.1% casein) [nM] | cAMP Rel EC50 (receptor-expressing HEK-293 cells, 1% HSA) [nM]
B1 | 2.7 | 418 | – | –
B2 | – | – | 1.26 | 333
B3 | 0.445 | 92 | – | –
B4 | 3.79 | 234 | – | –
B5 | – | – | 2.19 | 181
B6 | – | – | 8.07 | 665
B7 | – | – | 5.98 | 432
B8 | – | – | 1.34 | 155
B9 | – | – | 1.75 | 205
B10 | – | – | 5.36 | 477
B11 | – | – | 2.72 | 311
B12 | – | – | 1.35 | 128
